Measured values reported in patent US12685781B2, “Anti-HER3 antibody-drug conjugate” (DAIICHI SANKYO COMPANY, LIMITED, priority 2014, dated 2026).

Legend:
HER3 [1] = molecular target: T1, HER3 (Homo sapiens, UniProt P21860); assay: HER3 binding affinity by flow cytometry on HCC1569 cells; set-up: host or cells: HCC1569 (human breast cancer cell line); conditions: read-out: Kd (nM), equilibrium binding affinity
Protocol: A human breast cancer cell line HCC1569 (CRL-2330) from ATCC was cultured in an RPMI1640 medium (purchased from Invitrogen Corp., containing 10% […] (manufactured by Invitrogen Corp.) and 2 mM L-glutamine (manufactured by Invitrogen Corp.)). The cells were dissociated from the culture plate using ACCUTASE® SOLUTION (Millipore Corp., SCR005) or EDTA (5 mM, phosphate buffered saline (PBS, 137 mM sodium chloride, 2.7 mM potassium chloride, 1.47 mM potassium dihydrogen phosphate, and 10.5 mM disodium hydrogen phosphate)), and the number of living cells was measured by trypan blue treatment. The same numbers of cells suspended in a fluorescence-activated cell sorting (FACS) buffer (PBS containing 3% FBS and 0.004% sodium azide) were inoculated to 96-well U-bottom plates, and the cells were precipitated by centrifugation and suspended in 100 uL of an ice-cooled antibody or antibody-drug conjugate dilution or FACS buffer. […]
U1-59, the antibody-drug conjugate (3), the antibody-drug conjugate (10), or the antibody-drug conjugate (13) was evaluated as the antibody or the antibody-drug conjugates. […]
Fluorescence signals from living cells were evaluated using Accuri C6 Flow cytometer (BD Biosciences/Accuri® Cytometers Inc., serial number 1424) and CFlow software (CFlow sampler Version 1.0.264.13). […]

HER3 [2] = molecular target: T1, HER3; assay: Inhibition of HER3 signal, Western blotting in A549 cells; assay type: cell-based
Protocol: A human lung cancer cell line A549 (CRS-300114) from Cell Lines Service was dissociated by trypsin treatment, and 50,000 living cells were inoculated to 3 mL of DMEM/F12 (Invitrogen Corp., #21331-020)+10% FBS (Invitrogen Corp., #10270-106) in each of 6 wells. After culturing the cells for 3 days, the medium was replaced with 2 mL of a fresh medium.
The antibody or each antibody-drug conjugate was added directly to 2 mL of a medium in each of the 6 wells such that the final concentration was 10 ug/mL (20 uL of a stock solution of 1 ug/uL antibody or antibody-drug conjugate was added).
U1-59, the antibody-drug conjugate (3), the antibody-drug conjugate (10), or the antibody-drug conjugate (13) was used as the antibody or the antibody-drug conjugate. An untreated group was used as a control.
The cells were cultured for 2 days, washed once with PBS, and treated with 100 uL of an ice-cooled buffer (50 mM 4-(2-hydroxyethyl)-1-piperazineethanesulfonic acid (HEPES), pH 7.5, 150 mM sodium chloride, 1 mM ethylenediaminetetraacetic acid (EDTA), 12.5% glycerin, 1% Triton X-100, and 10 mM sodium pyrophosphate tetrabasic supplemented with proteinase inhibitors (Roche Diagnostics, Inc., #11697 498 001), 10 mM sodium fluoride, 1 mM sodium vanadate, 1 mM phenyl-methane-sulfonyl-fluoride (PMSF), and 10 ug/mL aprotinin (Sigma-Aldrich Co. LLC, A1153)) for 30 minutes at 4 C for lysis. […]

Substance: U1-59: anti-HER3 human antibody; heavy and light chain variable regions SEQ ID NOs: 70 and 72; produced per WO 2007/077028
- Kd (HER3 [1]): 1.6 nM
- HER3 phosphorylation compared with untreated cells (HER3 [2]; A549, 10 ug/mL, 2 days): reduced
- HER3 expression compared with untreated cells (HER3 [2]; A549, 2 days): reduction in HER3 expression was also observed
